Data published in paper PMC10427645, “Extracellular Pgk1 interacts neural membrane protein enolase-2 to improve the neurite outgrowth of motor neurons” (Communications Biology, 2023).

Target: T1, Eno2-Myc (mouse Enolase-2 fused with Myc) (mouse, UniProt P17183 1-434)
T1 construct: Pgk1-Flag was added to the medium of Sf21 cells expressing this protein, followed by BS3 cross-linking; source: Sf21 insect cells (Baculovirus, pVL-Eno2-Myc), expressed on or in the cells, not purified
Test: cross-linking + co-IP; cell surface crosslinking-IP: Sf21 cells expressing the Myc-tagged protein incubated 2 h with recombinant Flag-tagged Pgk1 or fragment in the medium, BS3 cross-linking, lysates immunoprecipitated with anti-Flag or anti-Myc beads, western blot with anti-Flag and anti-Myc
Conditions: one partner purified

T1 sequence (P17183 whole entry, the tested form may be a part): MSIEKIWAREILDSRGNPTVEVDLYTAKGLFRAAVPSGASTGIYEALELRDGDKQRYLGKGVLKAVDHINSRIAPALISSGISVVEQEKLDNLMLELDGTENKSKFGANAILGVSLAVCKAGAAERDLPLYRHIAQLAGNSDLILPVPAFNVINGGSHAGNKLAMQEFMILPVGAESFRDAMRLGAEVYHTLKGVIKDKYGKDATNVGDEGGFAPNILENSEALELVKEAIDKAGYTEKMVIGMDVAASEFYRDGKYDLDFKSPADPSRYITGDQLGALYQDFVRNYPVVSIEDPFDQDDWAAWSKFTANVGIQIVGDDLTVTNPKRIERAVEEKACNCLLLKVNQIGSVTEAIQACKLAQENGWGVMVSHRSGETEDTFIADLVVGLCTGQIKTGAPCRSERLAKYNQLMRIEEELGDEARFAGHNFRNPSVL

B1: recombinant mouse Pgk1 fused with Flag (Pgk1-Flag) (natural protein, UniProt P09411 1-417, looked up)
chain: MSLSNKLTLDKLDVKGKRVVMRVDFNVPMKNNQITNNQRIKAAVPSIKFCLDNGAKSVVLMSHLGRPDGVPMPDKYSLEPVAAELKSLLGKDVLFLKDCVGPEVENACANPAAGTVILLENLRFHVEEEGKGKDASGNKVKAEPAKIDAFRASLSKLGDVYVNDAFGTAHRAHSSMVGVNLPQKAGGFLMKKELNYFAKALESPERPFLAILGGAKVADKIQLINNMLDKVNEMIIGGGMAFTFLKVLNNMEIGTSLYDEEGAKIVKDLMSKAEKNGVKITLPVDFVTADKFDENAKTGQATVASGIPAGWMGLDCGTESSKKYAEAVGRAKQIVWNGPVGVFEWEAFARGTKSLMDEVVKATSRGCITIIGGGDTATCCAKWNTEDKVSHVSTGGGASLELLEGKVLPGVDALSNV
notes: phosphoglycerate kinase 1 (Pgk1), mouse, full-length coding region (1-417), cDNA cloned from NSC34 and C2C12 cells; also called extracellular Pgk1; phosphoglycerate kinase 1; source: Sf21 insect cells (Baculovirus expression system), purified (anti-Flag beads, eluted with 3x Flag peptide)
B1 was tested, and the “fold, intensity ratio of Flag relative to Myc in the Eno2-Myc plus Pgk1-Flag group against the Eno2-Myc group (set as 1)” value was 8 fold and the “fold, intensity ratio of Myc relative to Flag in the Pgk1-Flag plus Eno2-Myc group against the Pgk1-Flag group (set as 1)” value was 14 fold.
